Assay results taken from paper PMC4130638, “Structure of a Stapled Peptide Antagonist Bound to Nutlin-Resistant Mdm2” (PLoS ONE, 2014).
Positions of bridges follow the written chain, without caps; N, C: chain ends. Non-standard residues stand in square brackets, D forms with d. S8 = C=CCCCCCC[C@](C)(N)C(=O)O; S5 = C=CCCC[C@](C)(N)C(=O)O; FAM = carboxyfluorescein

Tests used:
[1] = molecular target: T1, Mdm2-M62A (amino acids 6-125) (UniProt Q00987 6-125, M62A); experiment: fluorescence polarisation; competitive fluorescence anisotropy: M06 titrated against a constant 150 nM Mdm2 (6-125) wild type or M62A and 50 nM FAM-12-1 peptide; PBS pH 7.4, 3% DMSO, 0.1% Tween-20; apparent Kd; 3-5 titrations; conditions: both partners purified
T1 construct: Made from the wild-type pGEX-6P-1 construct by QuickChange mutagenesis; also called Nutlin-resistant Mdm2; mutant Mdm2 (6-125); source: E. coli BL21(DE3) pLysS, purified (GSTrap, on-column PreScission cleavage, Resource S cation exchange)

[2] = molecular target: T2, Mdm2 (amino acids 6-125), wild type (UniProt Q00987 6-125); experiment: as above; conditions: both partners purified
T2 construct: Cloned in pGEX-6P-1; also called Mdm2 (6-125); wild-type Mdm2; source: E. coli BL21(DE3) pLysS, purified (GSTrap, on-column PreScission cleavage, Resource S cation exchange)

[3] = molecular target: T2, Mdm2 (amino acids 6-125), wild type; experiment: not stated; Kds told in the discussion of the structures without method, construct or citation

B1: carboxyfluorescein (FAM) labelled 12-1 peptide (peptide)
peptide: {FAM}-RFMDYWEGL-NH2
notes: 12-1 peptide, tracer of the fluorescence anisotropy assay
B1: binds [1]; binds [2].

B2: M06 stapled peptide (peptide)
chain: Ac-TSF[S5]EYWYLL[S8]-NH2
modifications: staple 4-11
SMILES: CC(=O)N[C@H](C(=O)N[C@@H](CO)C(=O)N[C@@H](Cc1ccccc1)C(=O)N[C@@]1(C)CCCC=CCCCCCC[C@@](C)(C(N)=O)NC(=O)[C@H](CC(C)C)NC(=O)[C@H](CC(C)C)NC(=O)[C@H](Cc2ccc(O)cc2)NC(=O)[C@H](Cc2c[nH]c3ccccc23)NC(=O)[C@H](Cc2ccc(O)cc2)NC(=O)[C@H](CCC(=O)O)NC1=O)[C@@H](C)O
In the case of B2, the Kd [3] is reported as 128 nM, the Kd [1] is reported as 63.1 ± 17.8 nM and the Kd [2] is reported as 107 ± 47.9 nM.
